Reference: patent US20230312724A1 (KADMON, published 2023)

T1: human B7-H4-his (human, UniProt Q7Z7D3 25-259)
T1 construct: also called hB7-H4-his; hB7-H4 his; not shown: his tag
T1 sequence: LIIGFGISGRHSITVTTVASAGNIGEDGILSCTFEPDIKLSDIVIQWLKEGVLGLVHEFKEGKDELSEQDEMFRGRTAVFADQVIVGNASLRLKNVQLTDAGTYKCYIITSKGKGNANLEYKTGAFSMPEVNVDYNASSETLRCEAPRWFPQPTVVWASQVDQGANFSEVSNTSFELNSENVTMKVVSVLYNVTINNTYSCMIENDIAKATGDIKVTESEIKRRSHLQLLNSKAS

T2: human B7-H4 expressed on cells (human, UniProt Q7Z7D3 25-282)
T2 construct: Transfected CHO cells or tumor cell lines that carry hB7-H4; also called cellular hB7-H4
T2 sequence: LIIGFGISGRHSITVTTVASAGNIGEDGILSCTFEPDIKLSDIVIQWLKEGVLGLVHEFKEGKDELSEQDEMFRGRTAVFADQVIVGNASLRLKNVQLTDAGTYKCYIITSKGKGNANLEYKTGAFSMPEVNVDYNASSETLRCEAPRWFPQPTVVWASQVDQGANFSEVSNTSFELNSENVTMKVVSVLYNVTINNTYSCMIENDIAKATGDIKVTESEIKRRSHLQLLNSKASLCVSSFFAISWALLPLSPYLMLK

T3: mouse B7-H4 expressed on cells (mouse, UniProt Q7TSP5 25-257)
T3 construct: also called cellular mB7-H4; mB7-H4/CT26
T3 sequence: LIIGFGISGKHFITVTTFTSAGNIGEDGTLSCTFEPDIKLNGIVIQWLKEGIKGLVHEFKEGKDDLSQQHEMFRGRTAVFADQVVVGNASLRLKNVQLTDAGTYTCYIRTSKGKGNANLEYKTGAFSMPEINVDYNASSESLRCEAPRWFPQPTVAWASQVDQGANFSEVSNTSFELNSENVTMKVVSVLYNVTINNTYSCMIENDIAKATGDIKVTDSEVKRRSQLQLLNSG

T4: mB7-H4 (soluble mouse B7-H4, construct not named) (mouse, UniProt Q7TSP5 25-257, limits assumed)
T4 sequence: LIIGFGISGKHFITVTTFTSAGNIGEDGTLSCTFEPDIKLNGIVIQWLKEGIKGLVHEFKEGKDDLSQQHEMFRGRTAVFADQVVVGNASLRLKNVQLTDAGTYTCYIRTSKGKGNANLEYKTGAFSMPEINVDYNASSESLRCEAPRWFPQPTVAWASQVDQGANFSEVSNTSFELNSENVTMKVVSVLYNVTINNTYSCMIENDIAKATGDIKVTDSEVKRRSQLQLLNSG


What was measured:
human B7-H4-his = biological target: T1, human B7-H4-his; assay: ELISA on coated hB7-H4-his
Description: (§1) About 1-2 μg/ml of human or mouse B7-H4-Fc (or his-tagged) was immobilized on ELISA plates (Immuno 2HB, Thermo scientific, cat #3455) at 4° C. overnight. After blocking the plates with 3% PBS+milk, serial diluted antibodies were added to the blocked plates and incubated at RT for 1-1.5 h. After washing the plates with PBS-T (0.05%), horse radish peroxidase (HRP)-conjugated antibody targeting the hFab was added to the plate. Signals were developed by adding 3,3′,5,5′-Tetramethylbenzidine (TMB (followed 1N of H₂SO₄ to stop the reaction. The OD at 450 nm was read by ELISA plate reader (Infinite M1000 from TECAN). GraphPad from Prism was used to plot OD450 vs. antibody concentration curve and to calculate the EC50 values.

human B7-H4-Fc [1] = biological target: T5, human B7-H4-Fc (human); assay: ELISA, coated hB7-H4-Fc
T5 construct: also called hB7-H4-Fc; hB7-H4 Fc
T5 sequence (chain, as listed by the source): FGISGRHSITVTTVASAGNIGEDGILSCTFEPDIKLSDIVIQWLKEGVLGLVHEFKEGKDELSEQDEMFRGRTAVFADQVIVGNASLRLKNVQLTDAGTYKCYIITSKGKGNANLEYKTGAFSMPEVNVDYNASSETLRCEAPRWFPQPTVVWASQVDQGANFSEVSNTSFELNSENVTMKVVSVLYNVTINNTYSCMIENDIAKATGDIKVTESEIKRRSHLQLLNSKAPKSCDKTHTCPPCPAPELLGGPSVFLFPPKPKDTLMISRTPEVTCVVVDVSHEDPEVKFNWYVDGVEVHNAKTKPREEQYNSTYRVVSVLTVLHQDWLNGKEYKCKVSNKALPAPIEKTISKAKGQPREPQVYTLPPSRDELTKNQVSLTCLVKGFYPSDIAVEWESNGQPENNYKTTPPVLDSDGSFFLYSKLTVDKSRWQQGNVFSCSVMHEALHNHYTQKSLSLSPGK

[2] = biological target: T2, human B7-H4 expressed on cells; assay: flow cytometry, SK-BR-3 cells
human B7-H4-Fc [3] = biological target: T5, human B7-H4-Fc; assay: ELISA, coated hB7-H4-Fc; remark: listed apart in the source
Description: ELISA experiments were performed to determine binding to hB7-H4-Fc (FIG. 5A), hB7-H4-his (FIG. 5B), mB7-H4-Fc domain (FIG. 5C), hB7-H4 IgV domain (FIG. 5D), and hB7-H4 IgC domain (FIG. 5E). Flow cytrometry experiments were performed to determine binding to CHO cells expressing hB7-H4 (FIG. 5F) or mB7-H4 (FIG. 5G). […] A cross-reactive IgV binding antibody and an IgC binding antibody were used as controls.
as §1

mouse B7-H4-Fc = biological target: T6, mouse B7-H4-Fc (mouse; human); assay: ELISA, coated mB7-H4-Fc (title on the sheet: Binding to mB7H4-Fc)
T6 construct: also called mB7-H4-Fc; mB7-H4-hFc
T6 sequence (chain, as listed by the source): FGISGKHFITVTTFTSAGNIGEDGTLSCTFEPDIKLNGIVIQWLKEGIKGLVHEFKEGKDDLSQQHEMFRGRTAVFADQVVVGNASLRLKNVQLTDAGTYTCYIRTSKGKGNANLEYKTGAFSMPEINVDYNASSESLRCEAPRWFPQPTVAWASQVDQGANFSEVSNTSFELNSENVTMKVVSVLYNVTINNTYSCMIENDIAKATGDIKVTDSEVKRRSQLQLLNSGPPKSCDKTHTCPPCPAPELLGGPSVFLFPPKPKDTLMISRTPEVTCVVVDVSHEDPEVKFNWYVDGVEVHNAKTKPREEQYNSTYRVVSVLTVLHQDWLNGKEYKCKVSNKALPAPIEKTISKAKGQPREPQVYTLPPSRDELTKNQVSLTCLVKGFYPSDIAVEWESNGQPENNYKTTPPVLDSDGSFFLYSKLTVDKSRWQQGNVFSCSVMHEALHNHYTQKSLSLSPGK
Description: ELISA experiments were performed to determine binding to hB7-H4-Fc (FIG. 4A), hB7-H4-his (FIG. 4B), hB7-H4 IgV domain (FIG. 4C), and mB7-H4 IgV domain (FIG. 4D). Flow cytrometry experiments were performed to determine binding to CHO cells expressing hB7-H4 (FIG. 4E) or mB7-H4 (FIG. 4F). […] A cross-reactive IgV binding antibody was used as a control.
as §1

human B7-H4-Fc [4] = biological target: T5, human B7-H4-Fc; assay: ELISA on coated hB7-H4-Fc
Description: as §1

[5] = biological target: T7, IgV domain of mouse B7-H4-Fc (mouse; human); assay: ELISA on coated IgV domain of mB7-H4
T7 construct: also called mB7-H4 IgV domain
T7 sequence (chain, as listed by the source): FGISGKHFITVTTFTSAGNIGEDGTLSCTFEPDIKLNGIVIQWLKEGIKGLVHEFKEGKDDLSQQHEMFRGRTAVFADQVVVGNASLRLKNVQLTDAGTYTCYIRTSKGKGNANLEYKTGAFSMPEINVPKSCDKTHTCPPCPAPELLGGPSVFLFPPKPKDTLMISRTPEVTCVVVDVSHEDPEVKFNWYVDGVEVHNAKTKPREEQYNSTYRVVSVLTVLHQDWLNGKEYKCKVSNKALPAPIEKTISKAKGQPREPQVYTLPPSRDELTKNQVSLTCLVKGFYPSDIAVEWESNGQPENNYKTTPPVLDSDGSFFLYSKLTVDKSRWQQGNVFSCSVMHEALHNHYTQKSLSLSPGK
Description: as §1

[6] = biological target: T3, mouse B7-H4 expressed on cells; assay: flow cytometry, mB7-H4/CT26 cells
Method in brief: (§2)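 Binding titrations: test proteins in serial dilution incubated on cells for 1 h at 4 °C in ice-cold FACS buffer. Detection with secondary antibody diluted 1:200.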

[7] = biological target: T4, mB7-H4 (soluble mouse B7-H4, construct …); assay: ELISA, mB7-H4
Method in brief: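 Human or mouse B7-H4-Fc (or his-tagged), about 1-2 μg/ml, was coated overnight at 4° C and blocked with 3% PBS+milk. Serially diluted antibodies bound for 1-1.5 h at RT, detected with HRP-conjugated anti-hFab and TMB, stopped with 1N H₂SO₄. EC50 came from OD450 versus antibody concentration curves.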

[8] = biological target: T3, mouse B7-H4 expressed on cells; assay: flow cytometry on mB7H4-CT26 cells
Description: (§3) Cells were harvested, washed once, and then re-suspended to the concentration of 1×10⁶ cells/ml in ice cold FACS Buffer. 25 μl of cell suspension was added to each well of a 96-well round-bottom microliter plate. Serially diluted antibodies or fusion proteins were added to each well and incubated for 1 hour at 4° C. Cells were washed three times by centrifugation at 1500 rpm for 5 minutes, and then stained with secondary antibody (1:200 dilution) for 30 min at 4° C. in the dark. Cells were washed once, re-suspended in 100 μl PBS buffer and then analyzed using Guava Flow Cytometry EasyCyte system.

[9] = biological target: T2, human B7-H4 expressed on cells; assay: flow cytometry, MX-1 cells
Description: as §3

[10] = biological target: T2, human B7-H4 expressed on cells; assay: flow cytometry, SK-BR-3 cells; remark: listed apart in the source
Method in brief: as §2

[11] = biological target: T2, human B7-H4 expressed on cells; assay: flow cytometry, MDA-MB-468 cells
Description: as §3

| EC50 (read off the curve) (human B7-H4-his) | EC50 (read off the curve) (human B7-H4-Fc [1]) | EC50 [2] | EC50 (read off the curve) (human B7-H4-Fc [3]) | EC50 (read off the curve) (mouse B7-H4-Fc) | EC50 (read off the curve) (human B7-H4-Fc [4]) | EC50 (read off the curve) [5] | EC50 [6] | EC50 [7] | EC50 (read off the curve) [8] | EC50 [9] | EC50 [10] | EC50 [11] | Binder |
| --- | --- | --- | --- | --- | --- | --- | --- | --- | --- | --- | --- | --- | --- |
| ~0.2 nM | ~0.02 µg/mL | 2.64 nM | ~0.07 nM | ~0.02 µg/mL | ~0.1 nM | ~0.2 nM |  |  |  |  |  |  | Control antibody 1 (antibody 20502 described in US20190085080A1) (antibody, V domains shown, also called (+) control Ab1; (+) Ab1) VH: QLQLQESGPGLVKPSETLSLTCTVSGGSIKSGSYYWGWIRQPPGKGLEWIGNIYYSGSTYYNPSLRSRVTISVDTSKNQFSLKLSSVTAADTAVYYCAREGSYPNQFDPWGQGTLVTVSS VL: EIVMTQSPATLSVSPGERATLSCRASQSVSSNLAWYQQKPGQAPRLLIYGASTRATGIPARFSGSGSGTEFTLTISSLQSEDFAVYYCQQYHSFPFTFGGGTKVEIK |
|  |  | 2.82 nM |  |  |  |  | 1.22 nM | 0.096 nM | ~2 nM | 8.87 nM | 1.9 nM | 13.1 nM | 39A11/57G8 (antibody, human IgG1, V domains shown, 39A11 VH with 57G8 VL) VH: EVQLLESGGGLVQPGGSLRLSCAASGFTFSSYGMHWVRQAPGKGLEWVASISSSSGYIYYADSVKGRFTISRDNSKNTLYLQMNSLRAEDTAVYYCARASSGMDVWGQGTTVTVSS VL: DIQMTQSPSSLSASVGDRVTITCRASQSIRSYLNWYQQKPGKAPKLLIYYASSLQSGVPSRFSGSGSGTDFTLTISSLQPEDFATYYCQQYYSTPLTFGQGTKVEIK |
